Laboratory results published in paper PMC12117155 (Nature Communications, 2025).

Molecular target: randomly biotinylated GCase (Velaglucerase) (human, UniProt P04062, biotin, randomly on lysine residues (EZ-Link Sulfo-NHS-LC-Biotin); glycosylated)
Assay: BLI

Chain of randomly biotinylated GCase (Velaglucerase) (P04062 40-536): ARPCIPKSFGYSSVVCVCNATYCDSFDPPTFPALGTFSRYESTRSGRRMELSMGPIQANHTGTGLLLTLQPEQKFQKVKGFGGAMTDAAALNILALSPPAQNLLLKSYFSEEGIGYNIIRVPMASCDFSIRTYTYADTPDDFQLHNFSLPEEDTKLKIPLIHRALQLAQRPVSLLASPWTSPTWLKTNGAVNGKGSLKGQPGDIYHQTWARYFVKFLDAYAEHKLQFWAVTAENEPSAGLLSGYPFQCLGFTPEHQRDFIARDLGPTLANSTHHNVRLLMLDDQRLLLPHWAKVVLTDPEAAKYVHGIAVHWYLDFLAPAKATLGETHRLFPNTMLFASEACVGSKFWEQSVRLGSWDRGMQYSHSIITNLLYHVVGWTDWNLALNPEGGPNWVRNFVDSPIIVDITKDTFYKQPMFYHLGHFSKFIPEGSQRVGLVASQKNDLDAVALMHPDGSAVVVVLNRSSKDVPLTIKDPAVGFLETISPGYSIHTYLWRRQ

B1: Nb1, C-terminally LPETGG-His6-EPEA-tagged (pHEN29) (VHH)
VHH: QVQLVESGGGLVQPGGSLRLSCAASGFTLDYYAIGWFRQAPGKEREGVSCISSSDGSTYYADSAKGRFTISRDNAKNTVYLQMNSLKPEDTAVYYCATDRGQCTYYSSGYYRDLRWYDYWGQGTQVTVSS
Kd: < 5 nM
